The source of these data is patent publication US20230257473A1 (TENEOBIO, published 2023).

For assay [1], the target named is recombinant BCMA (R&D Systems, catalog no. 193-BC) (human) (UniProt Q02223). The assay can be described thus: competitive ELISA, plate-bound BCMA; Ab 0.020 ng/mL; competitor APRIL 500.00 ng/mL. On the technique in general: An ELISA detects its analyte on a solid surface through an enzyme-linked reagent.
The target in assay [2] is BCMA on BCMA-expressing cells (H929 / NCI-H929, MM1.S, U266, Daudi) (human) (UniProt Q02223). The assay can be described thus: flow cytometry on H929 cells; antibody 200.000 ng/ml. Background: A flow cytometer gives signals particle by particle.
The target is the same in assay [3]. Description: flow cytometry on MM1.S cells; antibody 6.250 ng/ml.
Assay [4] addresses recombinant BCMA (R&D Systems, catalog no. 193-BC) (human) (UniProt Q02223). Description: competitive ELISA, plate-bound BCMA; Ab 0.002 ng/mL; competitor APRIL 0.00 ng/mL.
Assay [5] concerns the target BCMA on BCMA-expressing cells (H929 / NCI-H929, MM1.S, U266, Daudi) (human) (UniProt Q02223). Description: flow cytometry on MM1.S cells; antibody 50.000 ng/ml.
Assay [6] has the same target. The assay can be described thus: flow cytometry on MM1.S cells; antibody 12.500 ng/ml.
Assay [7] concerns the target recombinant BCMA (R&D Systems, catalog no. 193-BC) (human) (UniProt Q02223). Description: competitive ELISA, plate-bound BCMA; Ab 0.200 ng/mL; competitor APRIL 125.00 ng/mL.
Assay [8] shares this target. The assay can be described thus: competitive ELISA, plate-bound BCMA; Ab 2.000 ng/mL; competitor APRIL 15.63 ng/mL.
Assay [9] has the same target. Description: competitive ELISA, plate-bound BCMA; Ab 0.200 ng/mL; competitor APRIL 7.81 ng/mL.
Assay [10] deals with BCMA on BCMA-expressing cells (H929 / NCI-H929, MM1.S, U266, Daudi) (human) (UniProt Q02223). The assay can be described thus: flow cytometry on H929 cells; antibody 0.391 ng/ml.
The target in assay [11] is recombinant BCMA (R&D Systems, catalog no. 193-BC) (human) (UniProt Q02223). The assay can be described thus: competitive ELISA, plate-bound BCMA; Ab 200.000 ng/mL; competitor APRIL 62.50 ng/mL.
For assay [12], the target named is BCMA on BCMA-expressing cells (H929 / NCI-H929, MM1.S, U266, Daudi) (human) (UniProt Q02223). Description: flow cytometry on MM1.S cells; antibody 0.098 ng/ml.
Assay [13] has as its target recombinant BCMA (R&D Systems, catalog no. 193-BC) (human) (UniProt Q02223). Description: competitive ELISA, plate-bound BCMA; Ab 200.000 ng/mL; competitor APRIL 0.00 ng/mL.
The target in assay [14] is BCMA on BCMA-expressing cells (H929 / NCI-H929, MM1.S, U266, Daudi) (human) (UniProt Q02223). Description: flow cytometry on H929 cells; antibody 12.500 ng/ml.
For assay [15], the target named is recombinant BCMA (R&D Systems, catalog no. 193-BC) (human) (UniProt Q02223). Description: competitive ELISA, plate-bound BCMA; Ab 200.000 ng/mL; competitor APRIL 31.25 ng/mL.
Assay [16] deals with BCMA on BCMA-expressing cells (H929 / NCI-H929, MM1.S, U266, Daudi) (human) (UniProt Q02223). Description: flow cytometry on H929 cells; antibody 0.000 ng/ml (background).
The target in assay [17] is recombinant BCMA (R&D Systems, catalog no. 193-BC) (human) (UniProt Q02223). The assay can be described thus: competitive ELISA, plate-bound BCMA; Ab 0.020 ng/mL; competitor APRIL 31.25 ng/mL.
In assay [18] the target is BCMA on BCMA-expressing cells (H929 / NCI-H929, MM1.S, U266, Daudi) (human) (UniProt Q02223). The assay can be described thus: flow cytometry on MM1.S cells; antibody 200.000 ng/ml.
The target in assay [19] is recombinant BCMA (R&D Systems, catalog no. 193-BC) (human) (UniProt Q02223). The assay can be described thus: competitive ELISA, plate-bound BCMA; Ab 0.002 ng/mL; competitor APRIL 15.63 ng/mL.
In assay [20] the target is BCMA on BCMA-expressing cells (H929 / NCI-H929, MM1.S, U266, Daudi) (human) (UniProt Q02223). Description: flow cytometry on MM1.S cells; antibody 25.000 ng/ml.
The target is the same in assay [21]. Description: flow cytometry on H929 cells; antibody 50.000 ng/ml.
Assay [22] deals with recombinant BCMA (R&D Systems, catalog no. 193-BC) (human) (UniProt Q02223). The assay can be described thus: competitive ELISA, plate-bound BCMA; Ab 200.000 ng/mL; competitor APRIL 15.63 ng/mL.
A further assay concerns the target T1, human BCMA protein (human, UniProt Q02223 1-54, limits assumed).
T1 sequence (looked up): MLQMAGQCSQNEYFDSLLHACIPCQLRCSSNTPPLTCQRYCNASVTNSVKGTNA
Description: ELISA protein and cell-binding assays.

Chain of BCMA on BCMA-expressing cells (H929 / NCI-H929, MM1.S, U266, Daudi) (human) (Q02223 whole entry): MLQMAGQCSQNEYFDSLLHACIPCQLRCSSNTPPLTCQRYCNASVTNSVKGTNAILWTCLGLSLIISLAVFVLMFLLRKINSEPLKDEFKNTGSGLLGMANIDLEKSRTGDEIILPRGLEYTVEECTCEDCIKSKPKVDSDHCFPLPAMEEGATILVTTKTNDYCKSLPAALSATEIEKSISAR

B1: AntiX**BCMA_F7E_F7E (bispecific antibody, part only; not given: other chains of three-chain format, not shown: another chain or arm of the molecule)
tandem VH: QVQLVESGGGLVQPGGSLRLSCVASGFTFSSNAMSWVRQAPGKGLEWVSAISGSGDYTHYSDSVKGRFTISRDNSKNTLYLQMNSLRAEDTAVYYCAKEVPGGPLVDFDSRGQGTLVTVSSGGGGSGGGGSQVQLVESGGGLVQPGGSLRLSCVASGFTFSSNAMSWVRQAPGKGLEWVSAISGSGDYTHYSDSVKGRFTISRDNSKNTLYLQMNSLRAEDTAVYYCAKEVPGGPLVDFDSRGQGTLVTVSS
For B1, the A450-A570 in assay [1] was 0.0631; in assay [4], 0.0578; in assay [7], 0.0651; in [8], 0.107; in assay [9], 0.0577; in assay [11], 2.44. Besides, the A450-A570 in assay [13] came out at 2.47; in assay [15], 2.42; in assay [17] it was 0.0551; in assay [19], 0.062; in [22] it was 2.37. The MFI in [2] came to 52900; in assay [3], 2110; in [5], 2930; in assay [6], 2180; in assay [10], 5040; in [12] it was 1960. Also, the MFI in assay [14] came to 5680; in [16], 5000; in [18] it was 7340; in assay [20] it was 2340; in assay [21] it was 10900.

B2: anti-BCMA heavy chain-only antibody (UniAb) with the VH of SEQ ID NO: 12 (antibody, V domains shown)
VH: QVQLVESGGGLVQPGGSLRLSCVASGFTFSSNAMSWVRQAPGKGLEWVSAISGSGDYTHYSDSVKGRFTISRDNSKNTLYLQMNSLRAEDTAVYYCAKEVPGGPLVDFDSRGQGTLVTVSS
notes: Heavy chain-only antibody from UniRat; also called Clone ID No: 316302
Turning to B2, the A450-A570 was 0.0835 in assay [1]; 0.0616 in assay [4]; 0.0643 in [7]; 0.0867 in [8]; 0.0643 in [9]; 2.07 in [11]. In addition, the A450-A570 in [13] was determined as 2.44; in assay [15], 2.29; in [17], 0.0622; in assay [19], 0.0607; in assay [22] it was 2.4. Moreover, the MFI in [2] was found to be 14100; in assay [3] it was 2130; in assay [5], 2180; in assay [10] it was 5030; in assay [12], 2040; in [16], 5000. The MFI in assay [18] is 3180; in assay [20], 2130. Besides, the binding result with human BCMA protein is “binds”.
